Laboratory results from patent publication US8357515.

How the values were obtained:
[1] = system: LAP-mIL-4 fusion protein with aggrecanase cleavage site B06 (DVQEFRGVTAVIR)
Target sequence (chain, as listed by the source): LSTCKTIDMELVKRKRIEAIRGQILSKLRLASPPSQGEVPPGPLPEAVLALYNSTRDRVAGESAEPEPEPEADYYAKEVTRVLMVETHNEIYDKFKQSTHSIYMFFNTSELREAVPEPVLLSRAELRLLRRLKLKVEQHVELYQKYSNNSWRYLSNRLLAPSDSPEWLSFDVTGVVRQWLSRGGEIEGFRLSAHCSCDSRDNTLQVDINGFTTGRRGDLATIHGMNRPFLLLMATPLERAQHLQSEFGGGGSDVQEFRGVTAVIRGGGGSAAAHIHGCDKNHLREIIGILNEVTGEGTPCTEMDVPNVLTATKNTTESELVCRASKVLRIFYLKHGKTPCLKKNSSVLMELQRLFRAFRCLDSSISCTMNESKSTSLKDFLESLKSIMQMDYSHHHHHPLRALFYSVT

[2] = system: LAP-mIL-4 fusion protein with aggrecanase cleavage site B05 (HNEFRQRETYMVF)
Target sequence (chain, as listed by the source): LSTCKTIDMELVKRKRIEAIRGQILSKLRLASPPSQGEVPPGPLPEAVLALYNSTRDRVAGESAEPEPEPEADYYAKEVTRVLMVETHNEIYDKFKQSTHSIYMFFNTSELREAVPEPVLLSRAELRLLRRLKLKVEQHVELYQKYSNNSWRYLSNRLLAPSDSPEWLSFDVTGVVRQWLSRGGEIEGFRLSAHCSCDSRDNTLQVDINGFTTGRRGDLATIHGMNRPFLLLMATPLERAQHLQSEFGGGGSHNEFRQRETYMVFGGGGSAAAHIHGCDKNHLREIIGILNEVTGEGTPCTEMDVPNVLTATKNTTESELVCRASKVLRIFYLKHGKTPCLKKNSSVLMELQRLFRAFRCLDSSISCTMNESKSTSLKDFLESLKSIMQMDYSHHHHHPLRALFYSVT

B1: ADAMTS-4 (aggrecanase-1), recombinant (enzyme, UniProt O75173 213-837, looked up, species assumed)
A disintegrin and metalloproteinase with thrombospondin motifs 4: FASLSRFVETLVVADDKMAAFHGAGLKRYLLTVMAAAAKAFKHPSIRNPVSLVVTRLVILGSGEEGPQVGPSAAQTLRSFCAWQRGLNTPEDSDPDHFDTAILFTRQDLCGVSTCDTLGMADVGTVCDPARSCAIVEDDGLQSAFTAAHELGHVFNMLHDNSKPCISLNGPLSTSRHVMAPVMAHVDPEEPWSPCSARFITDFLDNGYGHCLLDKPEAPLHLPVTFPGKDYDADRQCQLTFGPDSRHCPQLPPPCAALWCSGHLNGHAMCQTKHSPWADGTPCGPAQACMGGRCLHMDQLQDFNIPQAGGWGPWGPWGDCSRTCGGGVQFSSRDCTRPVPRNGGKYCEGRRTRFRSCNTEDCPTGSALTFREEQCAAYNHRTDLFKSFPGPMDWVPRYTGVAPQDQCKLTCQAQALGYYYVLEPRVVDGTPCSPDSSSVCVQGRCIHAGCDRIIGSKKKFDKCMVCGGDGSGCSKQSGSFRKFRYGYNNVVTIPAGATHILVRQQGNPGHRSIYLALKLPDGSYALNGEYTLMPSPTDVVLPGAVSLRYSGATAASETLSGHGPLAQPLTLQVLVAGNPQDTRLRYSFFVPRPTPSTPRPTPQDWLHRRAQILEILRRRPWAGRK
cleavage of the fusion protein in 293T supernatant after overnight incubation at 37 C, Western blot probed with anti-IL-4 antibody [1]: the Agg1 and Agg2 constructs are cleaved by ADAMTS-4
cleavage of the fusion protein in 293T supernatant after overnight incubation at 37 C, Western blot probed with anti-IL-4 antibody (LAP-MMP IL-4): LAP-MMP IL-4 is only cleaved by MMP-1 (not cleaved by aggrecanase)
cleavage of the fusion protein in 293T supernatant after overnight incubation at 37 C, Western blot probed with anti-IL-4 antibody [2]: the Agg1 and Agg2 constructs are cleaved by ADAMTS-4
